In US20240124560A1:

How the values were obtained:
Assay in all cases: cell-based or functional assay
[1] = target: HIV-1 Env of NIH-038_Ce1172 H1 (HIV-1)
[2] = target: HIV-1 Env of NIH-057_MS208.A1 (HIV-1)
[3] = target: HIV-1 Env of pseudovirus NIH-021_ZM214M.PL15 (HIV-1)
[4] = target: HIV-1 Env of NIH-034_Ce0393 C3 (HIV-1)
[5] = target: HIV-1 Env of NIH-049_CNE20 (HIV-1)
[6] = target: HIV-1 Env of NIH-079_BJOX010000.06.2 (HIV-1)
[7] = target: HIV-1 Env of NIH-076_CNE5 (HIV-1)
[8] = target: HIV-1 Env of NIH-118_T255.34 (HIV-1)
[9] = target: HIV-1 Env of pseudovirus NIH-056_Q168ENVa2 (HIV-1)
[10] = target: HIV-1 Env of NIH-069_C1080.c03 (HIV-1)
[11] = target: HIV-1 Env of NIH-013_6240.08.TA5.4622 (HIV-1)
[12] = target: HIV-1 Env of NAC_JRCSF (HIV-1) (UniProt P20871)
Chain of HIV-1 Env of NAC_JRCSF (HIV-1) (P20871 32-848 limits assumed): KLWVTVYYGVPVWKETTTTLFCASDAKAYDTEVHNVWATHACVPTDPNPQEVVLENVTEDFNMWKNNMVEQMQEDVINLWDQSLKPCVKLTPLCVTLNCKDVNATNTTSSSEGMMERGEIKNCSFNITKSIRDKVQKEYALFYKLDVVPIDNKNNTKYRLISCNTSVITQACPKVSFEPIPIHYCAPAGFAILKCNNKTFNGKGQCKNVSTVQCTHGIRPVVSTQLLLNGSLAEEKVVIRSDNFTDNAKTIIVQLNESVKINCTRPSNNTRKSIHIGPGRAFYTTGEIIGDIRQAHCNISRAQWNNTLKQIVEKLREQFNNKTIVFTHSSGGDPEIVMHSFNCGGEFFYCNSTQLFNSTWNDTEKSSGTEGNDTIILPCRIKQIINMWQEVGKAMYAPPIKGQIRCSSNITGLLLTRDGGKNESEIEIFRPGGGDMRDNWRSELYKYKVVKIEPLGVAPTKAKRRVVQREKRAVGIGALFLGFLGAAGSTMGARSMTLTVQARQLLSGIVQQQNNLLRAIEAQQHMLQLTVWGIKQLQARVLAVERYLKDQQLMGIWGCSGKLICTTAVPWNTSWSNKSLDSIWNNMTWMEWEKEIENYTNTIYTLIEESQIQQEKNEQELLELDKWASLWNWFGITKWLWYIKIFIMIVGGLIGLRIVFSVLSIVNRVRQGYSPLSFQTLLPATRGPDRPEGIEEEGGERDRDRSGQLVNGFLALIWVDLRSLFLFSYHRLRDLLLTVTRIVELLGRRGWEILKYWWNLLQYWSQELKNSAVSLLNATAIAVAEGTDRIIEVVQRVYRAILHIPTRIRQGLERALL

[13] = target: HIV-1 Env of NIH-020_ZM197M.PB7 (HIV-1)
[14] = target: HIV-1 Env of NIH-073_C3347.c11 (HIV-1)
[15] = target: HIV-1 Env of pseudovirus NIH-058_Q23ENV17 (HIV-1)
[16] = target: HIV-1 Env of NIH-097_6811.v7.c18 (HIV-1)
[17] = target: HIV-1 Env of pseudovirus NIH-077_BJOX009000.02.4 (HIV-1)
[18] = target: HIV-1 Env of pseudovirus NAC_92RW020 (HIV-1)
[19] = target: HIV-1 Env of NIH-119_T211.9 (HIV-1)
[20] = target: HIV-1 Env of pseudovirus NIH-045_7030102001E5(Rev.) (HIV-1)
[21] = target: HIV-1 Env of NIH-006_AC10.0.29 (HIV-1)
[22] = target: HIV-1 Env of isolate NIH-083_P0402 c2 11 (HIV-1)
[23] = target: HIV-1 Env of NIH-023_ZM249M.PL1 (HIV-1)
[24] = target: HIV-1 Env of pseudovirus NIH-052_CNE30 (HIV-1)
[25] = target: HIV-1 Env of pseudovirus NIH-001_6535.3 (HIV-1)
[26] = target: HIV-1 Env of NIH-058_Q23ENV17 (HIV-1)
[27] = target: HIV-1 Env of NAC_93IN905 (HIV-1)
[28] = target: HIV-1 Env of NIH-035_Ce1176 A3 (HIV-1)
[29] = target: HIV-1 Env of NIH-004_PVO.4 (HIV-1)
[30] = target: HIV-1 Env of NIH-016_SC05.8C11.2344 (HIV-1)
[31] = target: HIV-1 Env of NIH-009_1006.11.C3.1601 (HIV-1)
[32] = target: HIV-1 Env of pseudovirus NIH-073_C3347.c11 (HIV-1)
[33] = target: HIV-1 Env of pseudovirus NIH-063_0330.v4.c3 (HIV-1)
[34] = target: HIV-1 Env of isolate NIH-088_X1632 S2 B10 (HIV-1)
[35] = target: HIV-1 Env of pseudovirus NIH-086_X2131 C1 B5 (clade G) (HIV-1)
[36] = target: HIV-1 Env of NIH-018_Du172.17 (HIV-1)
[37] = target: HIV-1 Env of pseudovirus NIH-005_TRO.11 (HIV-1)
[38] = target: HIV-1 Env of NAC_KNH1144 (HIV-1)
[39] = target: HIV-1 Env of isolate NIH-090_A07412M1.vrc12 (HIV-1)
[40] = target: HIV-1 Env of NIH-100_6041.v3.c23 (HIV-1)
[41] = target: HIV-1 Env of NIH-007_CAAN5342.A2 (HIV-1)
[42] = target: HIV-1 Env of pseudovirus NIH-019_Du422.1 (HIV-1)
[43] = target: HIV-1 Env of pseudovirus NIH-116_T263.8 (HIV-1)
[44] = target: HIV-1 Env of NIH-019_Du422.1 (HIV-1)
[45] = target: HIV-1 Env of pseudovirus NIH-057_MS208.A1 (HIV-1)
[46] = target: HIV-1 Env of pseudovirus NIH-059_Q461ENVe2 (HIV-1)

VRC01 (antibody)
IC80 neutralization [1]: > 50 µg/mL
IC80 neutralization [2]: 0.252 µg/mL
neutralization IC50 [3]: 0.612 µg/mL
IC80 neutralization [4]: 1.46 µg/mL
IC80 neutralization [5]: 20.2 µg/mL
IC80 neutralization [6]: 7.79 µg/mL
IC80 neutralization [7]: 0.238 µg/mL
IC80 neutralization [8]: 0.925 µg/mL
neutralization IC50 [9]: 0.056 µg/mL
IC80 neutralization [10]: 5.7 µg/mL
IC80 neutralization [11]: 2.62 µg/mL
IC80 neutralization [12]: 0.69 µg/mL
IC80 neutralization [13]: 0.682 µg/mL
IC80 neutralization [14]: 0.254 µg/mL
neutralization IC50 [15]: 0.038 µg/mL
IC80 neutralization [16]: 0.558 µg/mL
neutralization IC50 [17]: 0.565 µg/mL
neutralization IC50 [18]: 0.206 µg/mL
IC80 neutralization [19]: > 50 µg/mL
neutralization IC50 [20]: 0.38 µg/mL
IC80 neutralization [21]: 3.52 µg/mL
IC80 (µg/ml), TZM-bl pseudovirus neutralization [22]: 0.164 µg/mL
IC80 neutralization [23]: 0.197 µg/mL
neutralization IC50 [24]: 0.593 µg/mL
neutralization IC50 [25]: 0.946 µg/mL
IC80 neutralization [26]: 0.148 µg/mL
IC80 neutralization [27]: 0.28 µg/mL
IC80 neutralization [28]: 4.99 µg/mL
IC80 neutralization [29]: 0.79 µg/mL
IC80 neutralization [30]: 1.98 µg/mL
IC80 neutralization [31]: 0.571 µg/mL
neutralization IC50 [32]: 0.063 µg/mL
neutralization IC50 [33]: 0.033 µg/mL
IC80 (µg/ml), TZM-bl pseudovirus neutralization [34]: 1.35 µg/mL
IC50 (µg/ml), TZM-bl cell neutralization assay, pseudovirus [35]: 0.073 µg/mL
IC80 neutralization [36]: > 50 µg/mL
neutralization IC50 [37]: 0.231 µg/mL
IC80 neutralization [38]: 0.535 µg/mL
IC80 (µg/ml), TZM-bl pseudovirus neutralization [39]: 0.216 µg/mL
IC80 neutralization [40]: 0.087 µg/mL
IC80 neutralization [41]: 2.79 µg/mL
neutralization IC50 [42]: > 50 µg/mL
neutralization IC50 [43]: 0.124 µg/mL
IC80 neutralization [44]: > 50 µg/mL
neutralization IC50 [45]: 0.063 µg/mL
neutralization IC50 [46]: 0.195 µg/mL

PGZL1 (antibody)
IC80 neutralization [1]: 6.6 µg/mL
IC80 neutralization [2]: 45.6 µg/mL
neutralization IC50 [3]: 28.7 µg/mL
IC80 neutralization [4]: > 50 µg/mL
IC80 neutralization [5]: 9.5 µg/mL
IC80 neutralization [6]: 6.6 µg/mL
IC80 neutralization [7]: > 50 µg/mL
IC80 neutralization [8]: 13.2 µg/mL
neutralization IC50 [9]: 21.7 µg/mL
IC80 neutralization [10]: 6.93 µg/mL
IC80 neutralization [11]: > 50 µg/mL
IC80 neutralization [12]: > 50 µg/mL
IC80 neutralization [13]: 7.66 µg/mL
IC80 neutralization [14]: 0.263 µg/mL
neutralization IC50 [15]: 16.5 µg/mL
IC80 neutralization [16]: > 50 µg/mL
neutralization IC50 [17]: 3.97 µg/mL
neutralization IC50 [18]: 20.8 µg/mL
IC80 neutralization [19]: > 50 µg/mL
neutralization IC50 [20]: 49.6 µg/mL
IC80 neutralization [21]: 18.8 µg/mL
IC80 (µg/ml), TZM-bl pseudovirus neutralization [22]: 32.3 µg/mL
IC80 neutralization [23]: > 50 µg/mL
neutralization IC50 [24]: 40.5 µg/mL
neutralization IC50 [25]: 1.42 µg/mL
IC80 neutralization [26]: > 50 µg/mL
IC80 neutralization [27]: 2.2 µg/mL
IC80 neutralization [28]: > 50 µg/mL
IC80 neutralization [29]: > 50 µg/mL
IC80 neutralization [30]: 24.6 µg/mL
IC80 neutralization [31]: > 50 µg/mL
neutralization IC50 [32]: 0.055 µg/mL
neutralization IC50 [33]: 22.1 µg/mL
IC80 (µg/ml), TZM-bl pseudovirus neutralization [34]: > 50 µg/mL
IC50 (µg/ml), TZM-bl cell neutralization assay, pseudovirus [35]: 0.885 µg/mL
IC80 neutralization [36]: 1.6 µg/mL
neutralization IC50 [37]: 2.88 µg/mL
IC80 neutralization [38]: > 50 µg/mL
IC80 (µg/ml), TZM-bl pseudovirus neutralization [39]: > 50 µg/mL
IC80 neutralization [40]: > 50 µg/mL
IC80 neutralization [41]: > 50 µg/mL
neutralization IC50 [42]: 7.51 µg/mL
neutralization IC50 [43]: 2.02 µg/mL
IC80 neutralization [44]: 30.5 µg/mL
neutralization IC50 [45]: 10.1 µg/mL
neutralization IC50 [46]: 20.2 µg/mL

4E10 (antibody)
IC80 neutralization [1]: 4.56 µg/mL
IC80 neutralization [2]: 2.86 µg/mL
neutralization IC50 [3]: 5.31 µg/mL
IC80 neutralization [4]: 2.56 µg/mL
IC80 neutralization [5]: 1.58 µg/mL
IC80 neutralization [6]: 1.73 µg/mL
IC80 neutralization [7]: 5.9 µg/mL
IC80 neutralization [8]: 1.38 µg/mL
neutralization IC50 [9]: 3.78 µg/mL
IC80 neutralization [10]: 1.36 µg/mL
IC80 neutralization [11]: 40.3 µg/mL
IC80 neutralization [12]: 3.92 µg/mL
IC80 neutralization [13]: 1.08 µg/mL
IC80 neutralization [14]: 0.137 µg/mL
neutralization IC50 [15]: 1.29 µg/mL
IC80 neutralization [16]: 17 µg/mL
neutralization IC50 [17]: 0.389 µg/mL
neutralization IC50 [18]: 2.14 µg/mL
IC80 neutralization [19]: 5.08 µg/mL
neutralization IC50 [20]: 3.41 µg/mL
IC80 neutralization [21]: 2.73 µg/mL
IC80 (µg/ml), TZM-bl pseudovirus neutralization [22]: 0.363 µg/mL
IC80 neutralization [23]: 5.77 µg/mL
neutralization IC50 [24]: 4.17 µg/mL
neutralization IC50 [25]: 0.519 µg/mL
IC80 neutralization [26]: 5.37 µg/mL
IC80 neutralization [27]: 0.472 µg/mL
IC80 neutralization [28]: 7.36 µg/mL
IC80 neutralization [29]: 38.7 µg/mL
IC80 neutralization [30]: 3.44 µg/mL
IC80 neutralization [31]: 22.7 µg/mL
neutralization IC50 [32]: 0.034 µg/mL
neutralization IC50 [33]: 0.963 µg/mL
IC80 (µg/ml), TZM-bl pseudovirus neutralization [34]: 10.4 µg/mL
IC50 (µg/ml), TZM-bl cell neutralization assay, pseudovirus [35]: 0.194 µg/mL
IC80 neutralization [36]: 0.474 µg/mL
neutralization IC50 [37]: 0.769 µg/mL
IC80 neutralization [38]: 47.9 µg/mL
IC80 (µg/ml), TZM-bl pseudovirus neutralization [39]: 10.4 µg/mL
IC80 neutralization [40]: 22.2 µg/mL
IC80 neutralization [41]: 12.1 µg/mL
neutralization IC50 [42]: 1.42 µg/mL
neutralization IC50 [43]: 0.206 µg/mL
IC80 neutralization [44]: 5.66 µg/mL
neutralization IC50 [45]: 0.678 µg/mL
neutralization IC50 [46]: 2.33 µg/mL
